Source: publication PMC10870172

Tests used:
Assay in all cases: other fluorescence titration; single-molecule FRET on freely diffusing ClpB hexamers (1:100 labeled:unlabeled, ~50 pM labeled, ~5 nM total) with increasing concentrations of unlabeled κ-casein; ratio of H2MM-derived state 1 population with and without κ-casein fitted to a simple binding isotherm; 25 mM HEPES, 25 mM KCl, 10 mM MgCl2, 2 mM ATP, 0.01% Tween 20, pH 8, 22°C
[1] = molecular target: ClpB PL2 construct A281C-S359C (wt), hexamer with one labeled protomer (Thermus thermophilus) (UniProt Q9RA63)
[2] = molecular target: ClpB PL2 BB construct A281C-S359C with E271A/E668A, hexamer with one labeled protomer (Thermus thermophilus) (UniProt Q9RA63)
[3] = molecular target: ClpB PL1 construct S236C-S359C (wt), hexamer with one labeled protomer (Thermus thermophilus) (UniProt Q9RA63)
[4] = molecular target: ClpB PL3 construct S359C-Y646C (wt), hexamer with one labeled protomer (Thermus thermophilus) (UniProt Q9RA63)

**Q.** “κ-casein (from UniProt P02668 22-190) (natural protein)” was tested. Which Kd [1] did it give?
**A.** 11300 nM

**Q.** And the Kd [2]?
**A.** 300 nM

**Q.** And the Kd [3]?
**A.** 2900 nM

**Q.** And the Kd [4]?
**A.** 900 nM
